Reference: the supplement of paper PMC7125110
± gives the standard error. This sample holds only a part of the variants without activity.

B1: glmS ribozyme (parent)
chain: AUAAAAGCGCCAGAACUACAGAAAUGUAGUUGACGAGGAGGAGGUUUAUCGAAUUUUCGGCGGAUGCCUCCAAA

Tests used:
Conditions in all cases: with glucosamine-6-phosphate
glucosamine-6-phosphate [1] = variants of: B1; experiment: self-cleavage kobs at 40 uM GlcN6P; higher = faster cleavage; RNA array
In short: (§1)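 Tracking of barcoded ribozyme variants used a hybridised Cy3 probe at 37 °C, after in situ transcription by E. coli RNA polymerase on sequenced MiSeq chips. The flowed solution held 40 μM to 10 mM glucosamine-6-phosphate in HEPES/KCl/Mg(OAc)2 buffer, and imaging ran over ~14 h. kobs was taken from exponential decay fits of normalised per-tile medians, and kcat and KM from weighted Michaelis–Menten fits.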

glucosamine-6-phosphate [2] = variants of: B1; experiment: self-cleavage kobs at 160 uM GlcN6P; higher = faster cleavage; RNA array
In short: as §1

glucosamine-6-phosphate [3] = variants of: B1; experiment: self-cleavage kobs at 640 uM GlcN6P; higher = faster cleavage; RNA array
In short: as §1

glucosamine-6-phosphate [4] = variants of: B1; experiment: self-cleavage kobs at 2500 uM GlcN6P; higher = faster cleavage; RNA array
In short: as §1

glucosamine-6-phosphate [5] = variants of: B1; experiment: self-cleavage kobs at 10000 uM GlcN6P; higher = faster cleavage; RNA array
In short: as §1

Variant	self-cleavage kobs at 40 uM GlcN6P (glucosamine-6-phosphate [1]) [s⁻¹]	self-cleavage kobs at 160 uM GlcN6P (glucosamine-6-phosphate [2]) [s⁻¹]	self-cleavage kobs at 640 uM GlcN6P (glucosamine-6-phosphate [3]) [s⁻¹]	self-cleavage kobs at 2500 uM GlcN6P (glucosamine-6-phosphate [4]) [s⁻¹]	self-cleavage kobs at 10000 uM GlcN6P (glucosamine-6-phosphate [5]) [s⁻¹]
G60C A64C	< 1e-05	< 1e-05	< 1e-05	< 1e-05	< 1e-05
G38C G43C	< 1e-05				
G41U G44U A64U	< 1e-05				< 1e-05
G13C A36G	< 1e-05	< 1e-05			< 1e-05
G7A G35A A53C	< 1e-05	< 1e-05	< 1e-05	< 1e-05	
G37U G40U U46G U54C	< 1e-05	< 1e-05	< 1e-05	< 1e-05	< 1e-05
C16U A33U G51C	< 1e-05				
G9A C11G G35U G37U C61U	< 1e-05			< 1e-05	
C11U G63U	< 1e-05			< 1e-05	< 1e-05
G9A G62A	< 1e-05	< 1e-05	< 1e-05		
G44U A64U	< 1e-05	< 1e-05	< 1e-05	< 1e-05	< 1e-05
A15U G29U C71G	6.19e-05 ± 2.4e-05				0.000144 ± 2.7e-05
A33U G41A C50A A53C G60C	< 1e-05				< 1e-05
G7C C11A C50U U54C C58A C70A	0.000371 ± 0.00013				
U30G G60C	< 1e-05		< 1e-05		< 1e-05
C10U U45C G63A	< 1e-05	< 1e-05	< 1e-05		
C8U G38U	< 1e-05	< 1e-05		< 1e-05	
G32C G63A	< 1e-05	< 1e-05	< 1e-05	< 1e-05	
A15C U57C	< 1e-05				5.67e-05 ± 6.7e-06
A48C U65G	< 1e-05	< 1e-05			
C8A G26U A33C	< 1e-05				
C34U A36U G66A	< 1e-05				< 1e-05
G32U A36U G41A	< 1e-05		< 1e-05		
A6U G43A G59A G60U	< 1e-05				
A15G U47A C50A	< 1e-05				

Variant	self-cleavage kobs at 40 uM GlcN6P (glucosamine-6-phosphate [1]) [s⁻¹]	self-cleavage kobs at 160 uM GlcN6P (glucosamine-6-phosphate [2]) [s⁻¹]	self-cleavage kobs at 640 uM GlcN6P (glucosamine-6-phosphate [3]) [s⁻¹]	self-cleavage kobs at 2500 uM GlcN6P (glucosamine-6-phosphate [4]) [s⁻¹]	self-cleavage kobs at 10000 uM GlcN6P (glucosamine-6-phosphate [5]) [s⁻¹]
U56A G62C	< 1e-05			< 1e-05	< 1e-05
C10U C50U U57C	< 1e-05				
C34A A39C	< 1e-05	< 1e-05		< 1e-05	< 1e-05
C11A G44U U54C	< 1e-05			< 1e-05	
C10U A39U G43C	< 1e-05				< 1e-05
G29A A33G A36C U45C	< 1e-05				
C10A A39U	< 1e-05	< 1e-05	< 1e-05		< 1e-05
U46A G60U	< 1e-05	< 1e-05		< 1e-05	
U49C G63A A64C	< 1e-05				
G13U A36U A48G U55C C68G C70U	0.0002 ± 6.4e-05				0.000527 ± 0.00022
A15G G21U A33G	< 1e-05				< 1e-05
G59C G66U	< 1e-05	< 1e-05	< 1e-05		< 1e-05
A53U C61A	< 1e-05				< 1e-05
U46C G59U	< 1e-05	< 1e-05			
U45G G60C	< 1e-05		< 1e-05		
C8G U55A C61A	< 1e-05				
A52G U56C	< 1e-05		4.15e-05 ± 1.2e-05	7.09e-05 ± 1.3e-05	0.000259 ± 4.9e-05
C11G C58G	< 1e-05	< 1e-05	< 1e-05		< 1e-05
A12U C34G	< 1e-05	< 1e-05	< 1e-05	< 1e-05	< 1e-05
A14G U56C C61G	< 1e-05				< 1e-05
U30C A39U C68A	< 1e-05				< 1e-05
C10U A15U G44U U46G G63U A64G	< 1e-05				< 1e-05
G63C A64C	< 1e-05	< 1e-05			< 1e-05
G9A U57G	< 1e-05	< 1e-05	< 1e-05	< 1e-05	
U45C C61G	< 1e-05	< 1e-05	< 1e-05	< 1e-05	< 1e-05
